Experimental data taken from article PMC9313153, “Supramolecular Enzymatic Labeling for Aptamer Switch-Based Electrochemical Biosensor”.

Target: carcinoembryonic antigen (CEA) (UniProt P06731 35-685)
Assay: amperometric aptasensor (electrode-immobilized aptamer, HRP-CD label); HRP-CD, H2O2; detection range 10 pg/mL to 1 ng/mL, LOD 3.1 pg/mL (not a Kd); Aptamer electrode washed in 20 mM Tris-HCl pH 7.4, 100 mM NaCl, 5 mM MgCl2; casein block; read-out in 0.1 M sodium phosphate pH 7.4 with H2O2; CEA incubation buffer and temperature not in the material
Settings: protein: commercial; label: 5' thiol on gold nanoparticles; 3' adamantane for HRP-cyclodextrin; hairpin

Sequence of carcinoembryonic antigen (CEA) (P06731 35-685): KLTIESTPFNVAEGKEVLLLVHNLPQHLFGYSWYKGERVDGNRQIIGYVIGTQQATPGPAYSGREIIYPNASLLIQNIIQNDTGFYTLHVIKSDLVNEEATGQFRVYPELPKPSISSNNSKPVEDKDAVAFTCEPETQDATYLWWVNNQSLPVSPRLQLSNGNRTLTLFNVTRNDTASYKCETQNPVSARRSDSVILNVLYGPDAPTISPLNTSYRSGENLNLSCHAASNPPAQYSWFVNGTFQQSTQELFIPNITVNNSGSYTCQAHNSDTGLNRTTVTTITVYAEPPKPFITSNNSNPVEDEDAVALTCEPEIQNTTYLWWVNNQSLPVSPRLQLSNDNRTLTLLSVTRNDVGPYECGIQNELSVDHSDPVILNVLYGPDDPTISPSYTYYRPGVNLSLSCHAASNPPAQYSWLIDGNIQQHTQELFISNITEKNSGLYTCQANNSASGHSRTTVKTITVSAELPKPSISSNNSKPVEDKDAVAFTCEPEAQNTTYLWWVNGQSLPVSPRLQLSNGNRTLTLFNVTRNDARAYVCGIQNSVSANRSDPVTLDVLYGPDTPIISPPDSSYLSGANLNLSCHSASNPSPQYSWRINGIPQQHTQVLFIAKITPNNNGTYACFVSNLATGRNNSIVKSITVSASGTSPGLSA

CCACGATACCAGCTTATTCAATTCGTGG (structured_DNA, 5'-HS-(CH2)6; 3'-(CH2)6-NH2 converted to adamantane (ADA)) [Apt-ADA (anti-CEA aptamer)]: binds.
